# Entries after “also recorded” stand apart in the source; their conditions may differ.
# B1: GST-Als5: GST fusion of full length Als5 minus the GPI anchor attachment signal sequence, expressed in E. coli (protein)
# chain: ITGIFNSIDSLTWSNAGNYAFKGPGYPTWNAVLGWSLDGTSANPGDTFILNMPCVFKFTASQKSVDLTADGVKYATCQFYSGEEFTTFSSLKCTVNNNLRSSIKALGTVTLPIAFNVGGTGSSVDLEDSKCFTAGTNTVTFNDGSKKLSIAVNFEKSTVDQSGYLTTSRFMPSLNKIATLYVAPQCENGYTSGTMGFSTSYGDVAIDCSNVHIGISKGVNDWNHPVTSESFSYTKSCSSFGISITYQNVPAGYRPFIDAYISPSDNNQYQLSYKNDYTCVDDYWQHAPFTLKWTGYKNSDAGSNGIVIVATTRTVTDSTTAVTTLPFNPSVDKTKTIEILQPIPTTTITTSYVGVTTSYSTKTAPIGETATVIVDVPYHTTTTVTSEWTGTITTTTTRTNPTDSIDTVVVQVPLPNPTTTTTQFWSESFTSTTTITNSLKGTDSVIVREPHNPTVTTTEFWSESYATTETITNGPEGTDSVIVREPHNPTVTTTEFWSESYATTETVTNKPEGTDSVIIKEPHNPTVTTTEFWSESYATTETITTGPLGTDSIVIHDPLEESSSTTAIESSDSNISSSAQESSSSVEQSSSIVGLSSSSDIPLSSDMPSSSSTGLTSSESSTVSSYDSDSSSSSELSTFSSSESYSSSISDTTNFWDSSSSDLESTSITWSSSIDAQSSQSVQSVSNSISTSQETTSSSGEESNTSVTDILVSSDASSILNSDISSYYPSSTISLSDDFPHTIAGEPDSRSSSSIASTVEISSDLVSLTSDPTSSFDSSSSLNSDSSSSPFSDESDISASSSFSTLVAPSFSLSSSSSLSLTYPHYVNSTTYHASESESSSVASPSMASESANDDTHTLSESTDTTSSIGTDSSTVTFCRRDNGDGCIVTGMPSSSIDSEQTSDVTTTSSFVASSTPTSAEQSITDNPNIDSSQTSASSSTKSSVSVSDTVVNSISLSETSTLSSDDSTSSDTSISSTTNSDTGNINAGSSHTSTASIKESSIQKTGVMLSSSYLSTKLSSTSDITTELITTELITTELTTIEDNEPNTFTSTPSSHSEIFSSDNSVLSKQVDRESTIKTSPTTDVTTVSSLSVHSTEASTATLGENSFSNVASTPSNIATSLRSTSSSSNHATESSGTVKSEASAEAIPSPPTSTDNRLSYSTEEAKGITYANSGSTNNLITESQVAAPTDSTSVLIENPVVTSTFDDNSSAAVDQPSKTKSIEESIMNPDSTNETNNGFIATLSQAQVPNSLIHSESISTTMAKTTDASINGDSAASNSQPTTLIQQVATSSYNQPLITTYAGSSS
# modifications: left off: GST, N-terminal, kept
# Legend:
# Candida SC5314 cells = assay: Competition of anti-Als5 antibody binding to Candida cell surface, flow cytometry; format: cell-based, Candida albicans; details: TRITC secondary antibody, 37 °C 1 hour, mean of 3 independent experiments in duplicates
# Procedure: The production of the antibodies was outsourced (Merck India Ltd.). Polyclonal antibodies were generated in rabbit against the protein band obtained after an SDS-PAGE run of GST- Als5-SS. The antibodies detected both GST-Als5 as well as GST-Als5-SS on a Western Blot. The specificity of the generated anti-Als5 antibody was checked by detecting its ability to bind to the Candida cell surface adhesins. For staining, Candida SC5314 cells (a kind gift from Prof. Rajendra Prasad, SLS, JNU) were grown in synthetic dextrose minimal medium at 30°C to an OD600nm of 0.5. 500 µl of the cells were taken in an eppendorf and washed with PBS. […] The cells were then washed thrice with PBS, and the presence of the TRITC labelled secondary Ab on the Candida cells was detected using flow cytometry. To rule out the non-specific interaction of the secondary Ab with the proteins on Candida cell surface, unstained cells were also detected by flow cytometer. […]
# In order to confirm the identity of the Als5 protein, we also designed the following experiment. […] Using a TRITC labelled secondary antibody, we detected the bound primary antibodies on the Candida cells by flow cytometry. […]
# Figure 2 GST-Als5 specifically blocks binding of anti-Als5 antibody on Candida cell surface. […] This primary antibody was detected by a secondary antibody that was conjugated with TRITC and detected using flow cytometry as described in the text. […]
# [1] = Aggregation/precipitation on concentrating the protein; format: physicochemical; details: attempts to concentrate protein above ∼0.09 mg/ml
# Description: However, we observed bands of Mr ∼270 kDa, for both GST-Als5 and GST-Als5-SS (Figure 1B). This marked difference between the observed molecular weights in SDS-PAGE and the expected molecular weights has been previously attributed to the high content of hydroxyl amino acids in proteins; both Als5 and Als5-SS are rich in serine and threonine residues.
# It must be pointed out that a PreScission^TM protease site exists between the fusion tag and the Als5 proteins in the two constructs. However, our attempts to cleave off the fusion tag with the protease met with poor success. The PreScission^TM protease is also available as a GST-tagged enzyme and it is possible that steric factors precluded the interaction of the protease with the cleavage site in our fusion protein. Additionally, our protein yields to begin with were very low (∼0.09 mg/ml) and this too could have affected the efficiency of the cleavage. […] We used similarly expressed and purified GST as the control for all our experiments. Similar studies with GST-tagged proteins, including conformational studies, have been reported by other groups previously (cf.).
molecule,measurement,setting,value
B1,inhibition of anti-Als5 antibody binding to Candida cells (in words),Candida SC5314 cells,could inhibit the interaction of the primary antibodies to the cell surface in a concentration dependent manner; also recorded: inhibited the binding of anti-Als5 antibody to C.albicans cell surface in a concentration dependent manner
same,aggregation and precipitation on concentrating (in words),[1],aggregating and precipitating out; also recorded: tended to aggregate and precipitate out of solution
